Results reported in PMC7057681 (ACS Omega, 2020).
Where a chain is given by its changes, count along the chain named. Names may count otherwise.

B1: S100A3 R51Q mutant (natural protein, human)
chain: MARPLEQAVAAIVCTFQEYAGRCGDKYKLCQAELKELLQKELATWTPTEFQECDYNKFMSVLDTNKDCEVDFVEYVRSLACLCLYCHEYFKDCPSEPPCSQ
B2: S100A3 R51E mutant (natural protein, human)
chain: B1 chain with Q51E
B3: citrullinated S100A3 (R51Z), WT S100A3 citrullinated in vitro by PAD3 (natural protein, human)
chain: B1 chain with Q51R
modifications: citrulline at R51 (by PAD3 in vitro)

Legend:
SEC [1] = molecular target: the molecule itself; test: SEC
SEC-SAXS = molecular target: the molecule itself; test: SEC-SAXS
SEC [2] = molecular target: the molecule itself; test: SEC; remark: listed apart in the source

| Protein | stoichiometry N (SEC [1]) | stoichiometry N (SEC-SAXS) | stoichiometry N (SEC [2]) |
| --- | --- | --- | --- |
| B1 | 4 | 2 | – |
| B2 | – | – | 4 |
| B3 | 4 | – | – |
